Data published in PMC8065039.

Molecular target: CA521^FALA (human IgG4 monoclonal antibody with the F234A/L235A mutation) (human (from human antibody transgenic mice))
Test: BLI

Chain of CA521^FALA (human IgG4 monoclonal antibody with the F234A/L235A mutation) (human (from human antibody transgenic mice)) (heavy, as listed by the source, chain 1 of 2): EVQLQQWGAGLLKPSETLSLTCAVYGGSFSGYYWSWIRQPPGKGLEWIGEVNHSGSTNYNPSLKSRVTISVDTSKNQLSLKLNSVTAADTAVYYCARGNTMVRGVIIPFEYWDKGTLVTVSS
Chain of CA521^FALA (human IgG4 monoclonal antibody with the F234A/L235A mutation) (human (from human antibody transgenic mice)) (light, as listed by the source, chain 2 of 2): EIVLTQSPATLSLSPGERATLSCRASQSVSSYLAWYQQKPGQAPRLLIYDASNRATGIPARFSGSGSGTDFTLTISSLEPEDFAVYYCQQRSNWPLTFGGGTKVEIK

SARS-CoV-2 RBD protein (40592-V05H, Sino Biological) (from UniProt P0DTC2) (domain or fragment)
Kd: 0.698 nM
